The source of these data is US20220259593A1, “CONTROL OF MAMMALIAN GENE DOSAGE USING CRISPR” (The Regents of the University of California, priority 2019, published 2022).

This data set relates to K562 CRISPRi cells. The experiment in a line: Constant region variant library pooled growth screen, K562. The format is cell-based, human. Particulars: sgRNA constant region variants, un-modified constant region cr995. Summed up: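 Relative activity expresses each targeting sequence:constant region pair's phenotype over that of the unmodified constant region. Pooled growth screen ran in K562 CRISPRi cells in duplicate spinner-flask replicates, with puromycin selection and 4–8 days' growth at >2000× coverage; library paired variants with 36 targeting sequences.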

Where [1] appears, read: activity relative to the original.
[2] abbreviates: relative to the original, CRISPRi.

Residue numbers refer to the chain shown, from its start.

B1: cr687 (nucleic acid)
guide: GTTTAAGAGCTAAGCTGGAAACAGCATAGCAAGTTTAAATAAGGCTAGTCCGTTATCAACTTGAAAAAGTGGCACTGAGTCGGTGCT
modifications: listed as DNA, chemistry not fully specified
Take B1: under setting [1], the Mean relative activity came out at 1.042.

B2: cr196 (nucleic acid)
guide: B1 guide with C75G, T76C, G77C, C81G, G83C
modifications: listed as DNA, chemistry not fully specified
Take B2: the Mean relative activity under setting [2] was 0.3626.

B3: cr074 (nucleic acid)
guide: B1 guide with A6T, A8C, T76C
modifications: listed as DNA, chemistry not fully specified
In turn, B3 yielded a Mean relative activity under setting [2] of 0.341.

B4: cr924 (nucleic acid)
guide: B1 guide with G43A, C51T, A74G, T76C, T84C
modifications: listed as DNA, chemistry not fully specified
On to B4, for which the Mean relative activity under setting [2] is given as 0.3638.

B5: cr689 (nucleic acid)
guide: B1 guide with T34C, A55T, A65T, T76C
modifications: listed as DNA, chemistry not fully specified
On to B5, for which the Mean relative activity under setting [2] was determined as 0.3547.

B6: cr349 (nucleic acid)
guide: B1 guide with T76C, C81T
modifications: listed as DNA, chemistry not fully specified
For the molecule B6, the Mean relative activity under setting [2] was determined as 0.3326.

B7: cr623 (nucleic acid)
guide: B1 guide with A59C, C60T, T61G, A68C, G69A, T70G, T76C
modifications: listed as DNA, chemistry not fully specified
Consider B7, for which the Mean relative activity under setting [1] was 1.041.

B8: cr315 (nucleic acid)
guide: B1 guide with G43A, C51T, T62G, A67C, A74C, T76C, T84G
modifications: listed as DNA, chemistry not fully specified
For B8, the Mean relative activity under setting [2] stood at 0.3642.

B9: cr351 (nucleic acid)
guide: B1 guide with A47C, C57A, G63A, T76C
modifications: listed as DNA, chemistry not fully specified
For the molecule B9, the Mean relative activity under setting [2] turned out to be 0.3557.

B10: cr127 (nucleic acid)
guide: B1 guide with A42T, A65G, T76C, G79C
modifications: listed as DNA, chemistry not fully specified
In the case of B10, the Mean relative activity under setting [2] worked out at 0.3659.

B11: cr182 (nucleic acid)
guide: B1 guide with G33T, T76C
modifications: listed as DNA, chemistry not fully specified
For the molecule B11, the Mean relative activity under setting [2] was 0.3559.

B12: cr756 (nucleic acid)
guide: B1 guide with C45T, G48A, C75A, T76C, G83T
modifications: listed as DNA, chemistry not fully specified
In turn, B12 gave a Mean relative activity under setting [1] of 1.041.

B13: cr252 (nucleic acid)
guide: B1 guide with G52A, T76C
modifications: listed as DNA, chemistry not fully specified
In the case of B13, the Mean relative activity under setting [2] worked out at 0.3581.

B14: cr966 (nucleic acid)
guide: B1 guide with C60G, G69C, C75T, T76G, G82C, G83A
modifications: listed as DNA, chemistry not fully specified
On to B14, for which, under setting [2], the Mean relative activity came out at 0.3699.

B15: cr003 (nucleic acid)
guide: B1 guide with G1T, T76C
modifications: listed as DNA, chemistry not fully specified
Take B15: under setting [2], the Mean relative activity worked out at 0.3678.

B16: cr343 (nucleic acid)
guide: B1 guide with A59T, C60G, T61A, T62A, A68T, T70A, T76C
modifications: listed as DNA, chemistry not fully specified
Molecule B16 registered a Mean relative activity under setting [2] of 0.3733.

B17: cr051 (nucleic acid)
guide: B1 guide with G1T, G7C, T76C
modifications: listed as DNA, chemistry not fully specified
B17: under setting [2], the Mean relative activity is recorded as 0.3367.

B18: cr088 (nucleic acid)
guide: B1 guide with G1A, A6G, T76C
modifications: listed as DNA, chemistry not fully specified
For B18, the Mean relative activity under setting [2] was found to be 0.3745.

B19: cr471 (nucleic acid)
guide: B1 guide with G72T, T76A, G77C, C81G, G82T, C86A
modifications: listed as DNA, chemistry not fully specified
In turn, B19 gave a Mean relative activity under setting [2] of 0.3625.

B20: cr192 (nucleic acid)
guide: B1 guide with A74C, T76C, G77C, C81G, T84G
modifications: listed as DNA, chemistry not fully specified
B20 returned a Mean relative activity under setting [2] of 0.3609.

B21: cr014 (nucleic acid)
guide: B1 guide with A5C, T76C
modifications: listed as DNA, chemistry not fully specified
The molecule B21 gave a Mean relative activity under setting [2] of 0.3395.

B22: cr064 (nucleic acid)
guide: B1 guide with A5T, T76C
modifications: listed as DNA, chemistry not fully specified
For B22, the Mean relative activity under setting [2] stood at 0.3383.

B23: cr398 (nucleic acid)
guide: B1 guide with A37G, T76C
modifications: listed as DNA, chemistry not fully specified
Consider B23, for which the Mean relative activity under setting [2] is listed as 0.3667.

B24: cr895 (nucleic acid)
guide: B1 guide with G33T, A64T, T76C
modifications: listed as DNA, chemistry not fully specified
The molecule B24 gave a Mean relative activity under setting [2] of 0.3709.

B25: cr201 (nucleic acid)
guide: B1 guide with G43A, C51T, T76C
modifications: listed as DNA, chemistry not fully specified
B25: the Mean relative activity under setting [2] was determined as 0.3731.

B26: cr523 (nucleic acid)
guide: B1 guide with T34C, G72T, T76C, C86A
modifications: listed as DNA, chemistry not fully specified
B26 registered a Mean relative activity under setting [2] of 0.3746.

B27: cr634 (nucleic acid)
guide: B1 guide with A32G, A58G, T76C
modifications: listed as DNA, chemistry not fully specified
On to B27, for which the Mean relative activity under setting [2] is 0.3508.

B28: cr889 (nucleic acid)
guide: B1 guide with G43A, C51T, G72T, T76C, C86A
modifications: listed as DNA, chemistry not fully specified
Molecule B28 had a Mean relative activity under setting [2] of 0.3347.

B29: cr404 (nucleic acid)
guide: B1 guide with A58C, A65T, T76C
modifications: listed as DNA, chemistry not fully specified
Molecule B29 showed a Mean relative activity under setting [2] of 0.3784.
